The values below come from PMC6265457 (Nucleic Acids Research, 2018).

Common to all, as to assay: pull-down
One assay has as its target T1, FLAG-Swd2 (S. cerevisiae, UniProt P36104 1-329).
T1 sequence: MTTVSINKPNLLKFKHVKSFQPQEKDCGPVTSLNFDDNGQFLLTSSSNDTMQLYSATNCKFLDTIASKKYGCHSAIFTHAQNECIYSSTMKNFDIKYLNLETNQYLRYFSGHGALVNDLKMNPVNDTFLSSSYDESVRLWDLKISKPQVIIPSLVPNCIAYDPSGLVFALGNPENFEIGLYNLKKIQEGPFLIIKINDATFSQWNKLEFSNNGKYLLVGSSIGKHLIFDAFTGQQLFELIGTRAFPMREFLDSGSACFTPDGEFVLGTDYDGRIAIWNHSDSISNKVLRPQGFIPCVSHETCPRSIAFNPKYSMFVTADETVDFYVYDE

In another assay the target is T2, FLAG-Spp1 (wild type) (S. cerevisiae, UniProt Q03012 1-353).
T2 sequence: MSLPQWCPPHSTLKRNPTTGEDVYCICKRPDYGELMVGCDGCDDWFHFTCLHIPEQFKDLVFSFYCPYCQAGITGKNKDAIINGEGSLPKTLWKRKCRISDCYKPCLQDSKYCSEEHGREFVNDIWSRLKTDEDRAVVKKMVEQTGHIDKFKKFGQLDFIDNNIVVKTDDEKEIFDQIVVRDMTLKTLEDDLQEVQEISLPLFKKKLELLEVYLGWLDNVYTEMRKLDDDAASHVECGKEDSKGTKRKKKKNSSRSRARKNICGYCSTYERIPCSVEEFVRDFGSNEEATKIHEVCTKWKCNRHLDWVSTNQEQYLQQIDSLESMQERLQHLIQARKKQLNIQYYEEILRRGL

A further assay deals with T3, FLAG-Swd1 (S. cerevisiae, UniProt P39706 1-426).
T3 sequence: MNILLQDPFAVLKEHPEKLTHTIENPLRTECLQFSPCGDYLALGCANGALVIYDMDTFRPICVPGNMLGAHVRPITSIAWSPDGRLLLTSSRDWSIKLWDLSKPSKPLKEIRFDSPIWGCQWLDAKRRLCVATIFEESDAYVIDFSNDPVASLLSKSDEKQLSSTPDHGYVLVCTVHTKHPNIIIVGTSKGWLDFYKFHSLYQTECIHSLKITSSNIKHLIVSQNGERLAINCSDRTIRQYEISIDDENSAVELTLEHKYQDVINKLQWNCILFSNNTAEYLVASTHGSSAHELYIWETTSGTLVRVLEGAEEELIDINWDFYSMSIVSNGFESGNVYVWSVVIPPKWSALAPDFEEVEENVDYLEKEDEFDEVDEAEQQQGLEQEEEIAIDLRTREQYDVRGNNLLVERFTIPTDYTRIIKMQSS

B1: GST-tagged Set1 fragment, residues 124–229 (domain or fragment)
chain: TESALLLQQRPPSVLRYNTDNLKSKFHYFDPIKGEFFNKDKMLSWKATDKEFSETGYYVVKELQDGQFKFKIKHRHPEIKASDPRNENGIMTSGKVATHRKCRNSL
B1: in the assay with FLAG-Swd2, the binding result was “binds”.

B2: GST-tagged n-SET fragment (Set1 residues 762–937) (domain or fragment)
chain: MDLQNAIKDEEDMLILKQLLSTYTPTVTPETSAALEYKIWQSRRKVLEEEKASDWQIELNGTLFDSELQPGSSFKAEGFRKIADKLKINYLPHRRRVHQPLNTVNIHNERNEYTPELCQREESSNKEPSDSVPQEVSSSRDNRASNRRFQQDIEAQKAAIGTESELLSLNQLNKRK
As for B2, the binding result in the assay with FLAG-Spp1 (wild type) is listed as “binds”.

B3: GST-tagged Set1 fragment, residues 1–123 (domain or fragment)
chain: MSNYYRRAHASSGSYRQPQEQPQYSRSGHYQYSNGHSHQQYSSQYNQRRRYNHNDGTRRRYNDDRPHSSNNASTRQYYATNNSQSGPYVNKKSDISSRRGMSQSRYSNSNVHNTLASSSGSLP
Turning to B3, the binding result in the assay with FLAG-Swd1 was “binds”.
